Results: FireProtDB (doi:10.1016/j.jmb.2009.11.038)

B1: P7S|H8S, Q5NV88 (parent)
chain: NFMLTQPHSVSESPGKTVTISCTRSSGSIASNYVQWYQQRPGSSPTTVIYEDNQRPSGVPDRFSGSIDSSSNSASLTISGLKTEDEADYYCQSYDSSN

Variants of: B1
Conditions: Homo sapiens, pH 7.5, Fluorescence, Sodium phosphate 20mM, transition: 2, structure 2W0K, whole UniProt chain shown

Variant	Tm (Thermal)	change of melting temperature, mutant - wild type (higher = more stable) (Thermal)	ddG of mutation (higher = less stable) (Thermal)	unfolding enthalpy (calorimetric) (Thermal)	unfolding free energy (Thermal)	ddG of mutation (higher = less stable) (25 °C, GdnHCl)	denaturant midpoint (higher = more stable) (25 °C, GdnHCl)	unfolding free energy (25 °C, GdnHCl)
NFMLTQSSSVSESPGKTVTISCTRSSGSIASNYVQWYQQRPGSSPTTVIYEDNQRPSGVPDRFSGSIDSSSNSASLTISGLKTEDEADYYCQSYDSSN [P7S H8S]	43.7 °C	-6.2 °C	1.4 kcal/mol	79.4 kcal/mol	3.8 kcal/mol	–	–	–
NFMLTQSHSVSESPGKTVTISCTRSSGSIASNYVQWYQQRPGSSPTTVIYEDNQRPSGVPDRFSGSIDSSSNSASLTISGLKTEDEADYYCQSYDSSN [P7S]	43 °C	-6.9 °C	1.5 kcal/mol	79.5 kcal/mol	3.7 kcal/mol	2.6 kcal/mol	0.84 M	2.5 kcal/mol
NFMLTQPPSVSESPGKTVTISCTRSSGSIASNYVQWYQQRPGSSPTTVIYEDNQRPSGVPDRFSGSIDSSSNSASLTISGLKTEDEADYYCQSYDSSN [H8P]	50.1 °C	0.2 °C	0.8 kcal/mol	84.8 kcal/mol	4.4 kcal/mol	–	–	–
NFMLTQPSSVSESPGKTVTISCTRSSGSIASNYVQWYQQRPGSSPTTVIYEDNQRPSGVPDRFSGSIDSSSNSASLTISGLKTEDEADYYCQSYDSSN [H8S]	49.5 °C	-0.4 °C	0.2 kcal/mol	84.4 kcal/mol	5 kcal/mol	0.6 kcal/mol	1.28 M	4.5 kcal/mol
